Assay results as given in US20150217006A1 (IMMUNOMEDICS, published 2015).

Tests used:
[1] = target: T1, gastrin-releasing peptide receptor (GRPR) (human, UniProt P30550 1-384); assay: competition with 125I-BBN on PC-3 cells, repeat experiment, inhibitor 250 to 2 nM
T1 construct: whole, on cells; also called GRP receptor; GRP-receptor
Protocol: (§1) We used IMP333 as a non-specific control. […] A range of 56 to 0.44 nM was used as our inhibitory concentrations.
This experiment was repeated using a commercially available BBN peptide. We increased the amount of inhibitory peptide from 250 to 2 nM to block the ¹²⁵I-BBN from binding to PC-3 cells.

[2] = target: T1, gastrin-releasing peptide receptor …; assay: competition with 125I-Bombesin on PC-3 cells, inhibitor 56 to 0.44 nM
Protocol: as §1

T1 sequence (P30550 whole entry): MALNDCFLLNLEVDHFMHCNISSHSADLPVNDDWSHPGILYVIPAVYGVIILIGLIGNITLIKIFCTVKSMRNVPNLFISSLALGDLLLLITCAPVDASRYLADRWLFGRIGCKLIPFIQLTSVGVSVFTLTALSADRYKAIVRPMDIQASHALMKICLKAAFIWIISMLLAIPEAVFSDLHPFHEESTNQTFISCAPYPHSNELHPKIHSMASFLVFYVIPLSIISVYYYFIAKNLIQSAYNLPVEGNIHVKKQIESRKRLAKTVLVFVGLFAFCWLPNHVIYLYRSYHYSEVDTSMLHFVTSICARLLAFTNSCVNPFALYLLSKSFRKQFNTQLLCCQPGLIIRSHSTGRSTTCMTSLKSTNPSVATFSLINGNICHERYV

IC50 [1]: 35.9 nM
IC50 [2]: 21.5 nM
B1: IMP468 (NOTA-NH-(CH2)7CO-Gln-Trp-Val-Trp-Ala-Val-Gly-His-Leu-Met-NH2) (peptide)
peptide: QWVWAVGHLM
HELM: PEPTIDE1{[O=C(O)CN1CCN(CC(=O)O)CCN(CC(=O)[*:2])CC1].[O=C(CCCCCCCN[*:1])[*:2]].Q.W.V.W.A.V.G.H.L.M.[am]}$$$$V2.0
SMILES: CSCC[C@H](NC(=O)[C@H](CC(C)C)NC(=O)[C@H](Cc1c[nH]cn1)NC(=O)CNC(=O)[C@@H](NC(=O)[C@H](C)NC(=O)[C@H](Cc1c[nH]c2ccccc12)NC(=O)[C@@H](NC(=O)[C@H](Cc1c[nH]c2ccccc12)NC(=O)[C@H](CCC(N)=O)NC(=O)CCCCCCCNC(=O)CN1CCN(CC(=O)O)CCN(CC(=O)O)CC1)C(C)C)C(C)C)C(N)=O
notes: also called NOTA-conjugated bombesin derivative
